Assay results: the supplement of paper PMC11908140

B1: library; numbered along this chain (parent)
chain: MRKPRAAVGSGHRKQAASQEGRQKHAKNNSQAKPSACDGLARQPEEVVLQASVSSYHLFRDVAEVTAFRGSLLSWYDQEKRDLPWRRRAEDEMDLDRRAYAVWVSEVMLQQTQVATVINYYTGWMQKWPTLQDLASASLEEVNQLWAGLGYYSRGRRLQEGARKVVEELGGHMPRTAETLQQLLPGVGRYTAGAIASIAFGQATGVVDGNVARVLCRVRAIGADPSSTLVSQQLWGLAQQLVDPARPGDFNQAAMELGATVCTPQRPLCSQCPVESLCRARQRVEQEQLLASGSLSGSPDVEECAPNTGQCHLCLPPSEPWDQTLGVVNFPRKASRKPPREESSATCVLEQPGALGAQILLVQRPNSGLLAGLWEFPSVTWEPSEQLQRKALLQELQRWAGPLPATHLRHLGEVVHTFSHIKLTYQVYGLALEGQTPVTTVPPGARWLTQEEFHTAAVSTAMKKVFRVYQGQQPGTCMGSKRSQVSSPCSRKKPRMGQQVLDNFFRSHISTDAHSLNSAAQ

Variants of: B1
Test: 8OG:A repair function score (normalized; synonymous = 0, nonsense = -1) (normalized log-likelihood score); higher = more repair activity (WT-like)
Conditions: with 8OG:A DNA repair reporter (GFP) in HEK-293 MUTYH KO cells
Outline: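 Per-tile Rosace fitness scores were converted to a normalized repair function score anchored on synonymous and nonsense distributions. That scale puts synonymous medians at 0 and nonsense medians at -1. Variants with starting counts under 300 counts per million were discarded. Input came from sorting viable mCherry+ MUTYH knockout HEK-293 cells, carrying lentiviral MUTYH cDNA NNN codon-scan libraries in 10 pg/ml doxycycline and an 8OG:A GFP repair reporter, into GFP+ and GFP− bins at 72 h, three replicates per tile, followed by tile amplicon sequencing.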
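Further: cells sorted at 72 h after reporter transfection.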

**Q.** How did the “8OG:A repair function score” value turn out when MRKPRAAVGSGHRKQAASQEGRQKHAKNNSQAKPSACDGLARQPEEVVLQASVSSYHLFRDVAEVTAFRGSLLSWYDQEKRDLPWRRRAEDEMDLDRRAYAVWVSEVMLQQTQVATVINYYTGWMQKWPTLQDLASASLEEVNQLWAGLGYYSRGRRLQEGARKVVEELGGHMPRTAETLQQLLPGVGRYTAGAIASIAFGQATGVVDGNVARVLCRVRAIGADPSSTLVSQQLWGLAQQLVDPARPGDFNQAAMELGATVCTPQRPLCSQCPVESLCRARQRVEQEQLLASGSLSGSPDVEECAPNTGQCHLCLPPSEPWDQTLGVVNFPRKASRKPPREESSAQCVLEQPGALGAQILLVQRPNSGLLAGLWEFPSVTWEPSEQLQRKALLQELQRWAGPLPATHLRHLGEVVHTFSHIKLTYQVYGLALEGQTPVTTVPPGARWLTQEEFHTAAVSTAMKKVFRVYQGQQPGTCMGSKRSQVSSPCSRKKPRMGQQVLDNFFRSHISTDAHSLNSAAQ [T346Q] was run?
**A.** -0.787

**Q.** MRKPRAAVGSGHRKQAASQEGRQKHAKNNSQAKPSACDGLARQPEEVVLQASVSSYHLFRDVAEVTAFRGSLLSWYDQEKRDLPWRRRAEDEMDLDRRAYAVWVSEVMLQQTQVATVINYYTGWMQKWPTLQDLASASLEEVNQLWAGLGYYSRGRRLQEGARKVVEELGGHMPRTAETLQQLLPGVGRYTAGAIASIAFGQATGVVDGNVARVLCRVRAIGADPSSTLVSQQLWGLAQQLVDPARPGDFNQAAMELGATVCTPQRPLCSQCPVESLCRARQRVEQEQLLASGSLSGSPDVEECAPNTGQCHLCLPPSEPWDQTLGVVNFPRKASRKPPREESSASCVLEQPGALGAQILLVQRPNSGLLAGLWEFPSVTWEPSEQLQRKALLQELQRWAGPLPATHLRHLGEVVHTFSHIKLTYQVYGLALEGQTPVTTVPPGARWLTQEEFHTAAVSTAMKKVFRVYQGQQPGTCMGSKRSQVSSPCSRKKPRMGQQVLDNFFRSHISTDAHSLNSAAQ [T346S] was tested. Which “8OG:A repair function score” value did it give?
**A.** -0.168

**Q.** Which “8OG:A repair function score” value does the source give for MRKPRAAVGSGHRKQAASQEGRQKHAKNNSQAKPSACDGLARQPEEVVLQASVSSYHLFRDVAEVTAFRGSLLSWYDQEKRDLPWRRRAEDEMDLDRRAYAVWVSEVMLQQTQVATVINYYTGWMQKWPTLQDLASASLEEVNQLWAGLGYYSRGRRLQEGARKVVEELGGHMPRTAETLQQLLPGVGRYTAGAIASIAFGQATGVVDGNVARVLCRVRAIGADPSSTLVSQQLWGLAQQLVDPARPGDFNQAAMELGATVCTPQRPLCSQCPVESLCRARQRVEQEQLLASGSLSGSPDVEECAPNTGQCHLCLPPSEPWDQTLGVVNFPRKASRKPPREESSAWCVLEQPGALGAQILLVQRPNSGLLAGLWEFPSVTWEPSEQLQRKALLQELQRWAGPLPATHLRHLGEVVHTFSHIKLTYQVYGLALEGQTPVTTVPPGARWLTQEEFHTAAVSTAMKKVFRVYQGQQPGTCMGSKRSQVSSPCSRKKPRMGQQVLDNFFRSHISTDAHSLNSAAQ [T346W] here?
**A.** -0.751

**Q.** How did the “8OG:A repair function score” value turn out when MRKPRAAVGSGHRKQAASQEGRQKHAKNNSQAKPSACDGLARQPEEVVLQASVSSYHLFRDVAEVTAFRGSLLSWYDQEKRDLPWRRRAEDEMDLDRRAYAVWVSEVMLQQTQVATVINYYTGWMQKWPTLQDLASASLEEVNQLWAGLGYYSRGRRLQEGARKVVEELGGHMPRTAETLQQLLPGVGRYTAGAIASIAFGQATGVVDGNVARVLCRVRAIGADPSSTLVSQQLWGLAQQLVDPARPGDFNQAAMELGATVCTPQRPLCSQCPVESLCRARQRVEQEQLLASGSLSGSPDVEECAPNTGQCHLCLPPSEPWDQTLGVVNFPRKASRKPPREESSAYCVLEQPGALGAQILLVQRPNSGLLAGLWEFPSVTWEPSEQLQRKALLQELQRWAGPLPATHLRHLGEVVHTFSHIKLTYQVYGLALEGQTPVTTVPPGARWLTQEEFHTAAVSTAMKKVFRVYQGQQPGTCMGSKRSQVSSPCSRKKPRMGQQVLDNFFRSHISTDAHSLNSAAQ [T346Y] was run?
**A.** -0.168

**Q.** MRKPRAAVGSGHRKQAASQEGRQKHAKNNSQAKPSACDGLARQPEEVVLQASVSSYHLFRDVAEVTAFRGSLLSWYDQEKRDLPWRRRAEDEMDLDRRAYAVWVSEVMLQQTQVATVINYYTGWMQKWPTLQDLASASLEEVNQLWAGLGYYSRGRRLQEGARKVVEELGGHMPRTAETLQQLLPGVGRYTAGAIASIAFGQATGVVDGNVARVLCRVRAIGADPSSTLVSQQLWGLAQQLVDPARPGDFNQAAMELGATVCTPQRPLCSQCPVESLCRARQRVEQEQLLASGSLSGSPDVEECAPNTGQCHLCLPPSEPWDQTLGVVNFPRKASRKPPREESSARCVLEQPGALGAQILLVQRPNSGLLAGLWEFPSVTWEPSEQLQRKALLQELQRWAGPLPATHLRHLGEVVHTFSHIKLTYQVYGLALEGQTPVTTVPPGARWLTQEEFHTAAVSTAMKKVFRVYQGQQPGTCMGSKRSQVSSPCSRKKPRMGQQVLDNFFRSHISTDAHSLNSAAQ [T346R] was tested. Which “8OG:A repair function score” value did it give?
**A.** -0.56

**Q.** With MRKPRAAVGSGHRKQAASQEGRQKHAKNNSQAKPSACDGLARQPEEVVLQASVSSYHLFRDVAEVTAFRGSLLSWYDQEKRDLPWRRRAEDEMDLDRRAYAVWVSEVMLQQTQVATVINYYTGWMQKWPTLQDLASASLEEVNQLWAGLGYYSRGRRLQEGARKVVEELGGHMPRTAETLQQLLPGVGRYTAGAIASIAFGQATGVVDGNVARVLCRVRAIGADPSSTLVSQQLWGLAQQLVDPARPGDFNQAAMELGATVCTPQRPLCSQCPVESLCRARQRVEQEQLLASGSLSGSPDVEECAPNTGQCHLCLPPSEPWDQTLGVVNFPRKASRKPPREESSALCVLEQPGALGAQILLVQRPNSGLLAGLWEFPSVTWEPSEQLQRKALLQELQRWAGPLPATHLRHLGEVVHTFSHIKLTYQVYGLALEGQTPVTTVPPGARWLTQEEFHTAAVSTAMKKVFRVYQGQQPGTCMGSKRSQVSSPCSRKKPRMGQQVLDNFFRSHISTDAHSLNSAAQ [T346L] as the variant, how does the “8OG:A repair function score” value read?
**A.** -0.0228
